Measurements reported in the nanobody polyreactivity screen of Harvey et al. (2022).

Assay: yeast display, Sf9 membrane polyspecificity reagent, FACS + sequencing; frameworks hold sequencing errors
Outline: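 Genes from sorted yeast were amplified by colony PCR, read by MiSeq 2 × 250 sequencing and filtered on CDR length. These cells carried a synthetic nanobody library in Saccharomyces cerevisiae BJ5465 and were sorted by FACS into low and high (top ~1%) gates on anti-HA and streptavidin fluorescence. Polyreactivity is labelled according to the gate of origin.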

Sequence | polyreactivity (PSR sort gate)
QVQLVESAGGLVQAGGSLRLSCAASGRIFSRYAMGWYRQAPGKERELVAAITQSGTSTYYADSVKGRFTISRDNAKNTVYLQMNSLKPEDTAVYYCNAYRQYRYDYWGQGTQVTVSS | low polyreactivity
QVQLVESAGGLVQAGGSLRLSCAASGRIFVTNAMGLYRQAPGKEREFVAGISFSGDGRTYYADSVKGRFTISRDYAKNSVYFQMNSLKPEDTAVYYCAAPHRSRTHELDYWGLGTQVTVSS | low polyreactivity
QVQLVESAGGLVQAGGSLRLSCAASGRNFYYYAMGWYRQAPGKERELVAAISIGGITYADSVKGRFTISRDNAKNTVYLQMNRLKPEDTAVYYCAATARQSRGRYYWGQGTQVTVSS | low polyreactivity
QVQLVESAGGLVQAGGSLRLSCAASGRTFFRNAMGWYRQAPGKERELVAGITASGGNTYYADSVKGRFTISRDNAKNTVYLQMNSLKPEDTAVYFCNAVYSLARITRAGYGYWGQGPQVTVSS | high polyreactivity
QVQLVESAGGLVQAGGSLRLSCAASGRTFGRKAMVWSRQAPGERELGAVISRGGSTYYADTVKGRFTISRDNAKNTVYLQMNILKPEDTAVYYCNADTVYTRTGPYDYWGQGTQVTVSS | low polyreactivity
QVQLVESAGGLVQAGGSLRLSCAASGRTFRTYAMGWYRPAPVKERELVAAITSGGNTYYADSVKGRFTISRDNAKNTVYLQMNSLKPEDTAVYYCAAVQYFKVYYWGQGTQVTVSS | high polyreactivity
QVQLVESAGGLVQAGGSLRLSCAASGRTLSNYAMGWYREAPGKERELVAVISQSGGRTYYADSVKGRFTISRDNAKNTVYLQLNSLKPEDTAVYYCNVDISWLRRKFDYWGQVTQVTVSS | low polyreactivity
QVQLVESAGGLVQAGGSLRLSCAASGSIFDAYAMGWYRQAPGKERELVAAIIARGGSTYYADSVKGRFTISRDNAKTTVYLQMISLKPEDTAVSYCNRLSRVRRYIYDYWGQGTQVTVSS | high polyreactivity
QVQLVESAGGLVQAGGSLRLSCAASGSIFTYYAMGWYIQAPGKERELVAAISSDGGRTFYADSVKGRFTISRDNAKNTVYLQMNSLKPEDTAVYYCAAETNRFPGYGYWGQGTQVTVSS | low polyreactivity
QVQLVESAGGLVQAGGSLRLSCAASGSISAGNAMGWNRQAPGKERELVAAISGSGGSTYYADSVKGRFTISRYNAKNSVDLQMKSLKPEDTAVYYCAARGGYRLRYIPYVRYDYWGEGTQVTVSS | high polyreactivity
QVQLVESAGGLVQAGGSLRLSCAASGSTFGPYAMGWYRQVPGKERELVAGISYGGGTTFYADSVKGRFTISRDNAKYTVYLQMNSLKPEDTAVYYCAATYRPNRYLEGYWGQGTQVTVSS | high polyreactivity
QVQLVESAGGLVQAGGSLRLSCAASGSTFLSYFMGWYRQAPGKERELVAAITGTGGRTYYADSVKGRFTISRDNAKNTVYLQMNSLKPEDSAVYYCTAYRKHGYDYWGQGTQVTVSS | high polyreactivity
QVQLVESAGGLVQAGGSLRLSCAASGSTFRLNTMGWYRQEPGNERELVAGISYSGGSTYYADSVNGRFTISRDNAKNTVYLQMNSLKPEDTAVYYCNKRAWFSSKDDYWGQGTQVTVSS | high polyreactivity
QVQLVESAGGLVQAGGSLRLSCAASGSTFVTNVMGWYRQAPGKERELVAAISYSGGNTYFEDSVKGRFTISRDYAKNTVYLQMNSLKPEDTAVYSCAASYKPFKKMGYWGQGTQVTVSS | high polyreactivity
QVQLVESAGGLVQAGGSLRLSCAASGYTFPYYTMGWYRQAPGKERELVATITRRGDSTYYADSVKGRFTISRDNAKNTVYLQMNSLKPEDTAVYYCNTASYGRHQFRKSSKMDYWGQGTQVTVSS | high polyreactivity
QVQLVESAGGLVQAGGSLRLSCAASGYTFVNYAMGWYRQAPGKERELVAAISRSGGSTYYADSVKGRFTISRDHAKNTVYLQMNSLKPEDTAVYYCAKVVQGDHPYDYWGQGTQVTVSS | high polyreactivity
QVQLVESAGGLVQAGGSLRLSCAASGYTSSLNAMGWYRQAPGKERELVARITTDGTSTYYADSVKGRFTISRDNAKNTVYLQMNSLKPEDTAVYYCNKRSHLYGNTPYYYWGQGTQVTVSS | low polyreactivity
QVQLVESAGGLVQAGGSLRLSCAPSGSILASNAMGCYRQAPGKDRELVSAITTSGGSTYYADYVKGRFTISLDNAKNTVYLQMNSLKPEDTAVYYCNAEYSRGRWLRYGYWGQGTQVTVSS | high polyreactivity
QVQLVESAGGLVQAGGSLRLSCSASGLTFVPNAMGWYRQAPGKERELVATISSSGGRTTYADSVKGRFTISRDKAKNTVYLQMNSLKPEDTAVYYCADQGYWTGYDYWGQGTQVTVSS | high polyreactivity
QVQLVESAGGLVQAGGSLRLSCSASGTIIWFYAMGWYRQAPGKERELVAAITRSGGSTYYADSVKGRFTISRDNAKNTVYLQMNSLKPEDTAVYYCAAGTVDYRGYFEMYYWGQGTQVTVSS | low polyreactivity
QVQLVESAGGLVQAGGSLRLSSAASAFTFYSNAMGWYRHAPGKEREFVAAGSTYYADSVKGRFTISRDNAKNTVYLQMNSLKPEDTAVYYCAADSYDVSRRYEYEYWGEGTQVTVSS | low polyreactivity
QVQLVESAGGLVQAGGSLRLTCDASGSTFGYYAMGLYRQAPGKEMELVAAITSNDGSTNYADSVKGRFTISRDNAKNTVYLQMNSLKPEDTAVYYCNARYFVAVISSFDYWGQGTQVTVSS | low polyreactivity

Sequence | polyreactivity (PSR sort gate)
QVQLVESAGGLVQAGGSLSLSCAASGRTFIRHAMGRDRQAPGKERELVAAINSGGITNYADSVKGRFTISRVNAKNTVFLKRNSLKPEDTAVYYCAAYKPWYVGLYPWYDYWGQGTQVTVSW | low polyreactivity
QVQLVESAGGLVQAGGSLSLSCAASGSMFIYNAMGWYRQAPGKERELVATISSGGSTTYADSVKGRFTISRDNAKNTVYLQMNSLKPEDTAVYYCATDDPPDQYFYLGYYYWGANDYWGQGTQVTVSS | low polyreactivity
QVQLVESAGGLVQAGGSLSLSCAATGSILQEYAMGSYRQAPGTERELVAAITRRGGNTYYADSVKGRFTISRDNAKNTVYLQMNSLKPEDTAVYYCAAPHGKYSWQYEYWGQGTQVTVSS | low polyreactivity
QVQLVESAGGLVQAGRSLRLSCAASGYTFAKYTKGWYREATGKERELVAAISRGGSTTYADSVKGRFTISRDNAKNTVYLQMHSLKPEDTAVYYCAADVHRVVLEYDYWGQGTQVTVSS | low polyreactivity
QVQLVESAGGLVQAGVSLRLSCAASGFTFGWYAMGWYRQAPGKERELVATISWSGSSTYYADSVKGRFTISRDNAKNTVYVQMNSLKPDDTAVYYCNAVYGRFVVLRYDYWGQGTQVTVSS | high polyreactivity
QVQLVESAGGLVQAVGSHRLSSATSGSIFSGNSMGWYRQAPGTQSELVADISQNGGRTYYADSVKGRFTISRDNAKYTVYLQINSLKPEDTGVYYCAARGWYRYGSVYYIGDYWGQGTQGTVSS | high polyreactivity
QVQLVESARGLVQAGGSLRLSCAASGFTFYKYAMGWYRQAPGKETELVDAISSGGRTNYADSVKGRFTISRDNAMNTVYLHMNSLNPEDTAVYFCAADRSYRSGYNYWGQGTQVTVSS | high polyreactivity
QVQLVESAVGLVQAGGSLRLSCAASGILFARYAMGWYRQAPGKERELVAVISGSGGSTYYADSVKGRFTISRDNAKNTVYLQMNSLKPEDTAVYYCNAEFESGHDLDWYDYWGQGTQVTVSS | low polyreactivity
QVQLVESCGCLVQAGGSLRLSCAASGIIFFPYAMGWYRQAPGKEREFVAAITSRRGSTYYADSVKGRFTISRDNPKNTVYLQMNILKPEDTAVYYCAAAWCAPSRFFSAFDYWGQGTQVTVSS | low polyreactivity
QVQLVESCGGLDQAGGSLRLSCAASGFMFHLYGMGWYRQAPGKEMEWVAAISSGGRTYYADSVKGRFTISRDNAKNTVYLQMNSLKPEDTAVYYCAVYVAYLYSYYYWGQGTQETVSS | low polyreactivity
QVQLVESCGGLVQAGASLRLSCAASGRTFSENAMGWYRQARGKEREFVAGNSFSGDGRTYYADSVKGRFTISRDNAKNTVYLQMNSLKPEDTAVYYCAAPHRSRTHELDYWGQGTQVTVSS | low polyreactivity
QVQLVESCGGLVQAGGSLRLSCAASGFIFDWYAMGWYRQAPGKVRELVAAITTDGGGTYYADSVKGRFTISRDNAKNNVYLQMNSLKPEDTAVYDCAADGVSTSPQYDYWGQGTQVTVSS | high polyreactivity
QVQLVESCGGLVQAGGSLRLSCAASGFIFTYYVMGWYRQAPGKERELVATISISDGTTYADSVKGRFTISRDNAKNTVYLQMNSLKPEDTAVYYCAADNSFTDNYWGQGTQVTVSS | low polyreactivity
QVQLVESCGGLVQAGGSLRLSCAASGGTFGPYAMAWYRQAPGKEREFVARITGSGTRTYYADSVKGRFTISRDNAKNTVYLQMNSLKPEDTAVYYCATSHSRGSRGHDYWGQGTQVTVSS | low polyreactivity
QVQLVESCGGLVQAGGSLRLSCAASGLTFLAYDMGWYRQAPGKEREFVAAITGGGSTHYADSVKGRFTISRDNAKTTVYLQMNSLKTEDTAVYYCNADVYVYSVTSHYPSYRLDYWGQGTQVTVSS | high polyreactivity
QVQLVESCGGLVQAGGSLRLSCAASGRTFSLYTMGWYRQAPGKERELVATIRSRGGSTYYADSVKGRFTISRDNAKNTFYLQMNSLIPEDTAVYYCATVLRGPFLGWHGGPMYHWGQGTQVTVSS | low polyreactivity
QVQLVESCGGLVQAGGSLRLSCAASGRTIASYAMGWYRQAPGKERELVAAITSGGSTYYADSVKGRFTISRDNAMNTVYLQMNSLKPEDTAVYYCARKHAIWRGYDYWGQGTQVTVSS | low polyreactivity
QVQLVESCGGLVQAGGSLRLSCAASGSIFADYAMGWYRQAPGKEREFVAAITRSGTSTYYADSVKGRFTISRDNAKNTVYLQMTSLKPVDTPVYYCAKTEVLLYLYTLDYWGQGTQVTVSS | low polyreactivity
QVQLVESCGGLVQAGGSLRLSCAASGSIFPYYTMGWYRQAPWKERELVAAISGSGGSTYYADSVKGRFTISRDNAKNTVYLQMNSLKAEYTAVYYCAAYRRTWFDYWGQGTQVTVSS | high polyreactivity
QVQLVESCGGLVQAGGSLRLSCAASGSIFVGNAMGWYRQAPGKERELVAAIDASGGNTYYADSVKGRFTISRDNAKNTVYLQMNSLKPEDTAVYYCNKYGYWWWGTRESDYWGQGTQVTVSS | high polyreactivity
QVQLVESCGGLVQAGGSLRLSCAASGSTFAGYVMGWYRQAPGKERQFVAAISTSGGRTYYADSVKGRFTISRDNAKNTVYLQMNSLKPEDTAVYYCAARSVTYGGLGLYGYWGQGTQVTVSS | high polyreactivity
